Data on eight molecules can be found in US20200190209A1 (BLACK BELT THERAPEUTICS, published 2020).

A word on the Kd: it is a measure of binding affinity in units of concentration. A word on the EC50: it is the concentration needed to bring the measured effect to its halfway point. Low readings indicate an effect from little substance, high ones a need for much substance.

In test [1] the target is T1, recombinant human CD38 his tagged (extracellular domain) (human, UniProt P28907 43-300).
T1 construct: also called rhCD38; rhCD38-his; not shown: Histidine tag
The experiment in a line: Octet BLI, affinity, monovalent human CD38-HIS; IgG4. Background: BLI is a label-free optical method that tracks binding on a fibre tip over time.

The target in test [2] is T1, recombinant human CD38 his tagged …. The test can be described thus: SPR Biacore affinity, rhCD38-his. In general terms: Surface plasmon resonance follows binding to a sensor surface in real time, without labels.
Method: (§1) Anti-human antibody was initially immobilised across all flow cells in analysis buffer (pH 7.4, 10mM HEPES, 150mM NaCl, 3mM EDTA, 0.05% Tween 20) to an RU of between 12,000-14,000 over 10 minutes. […] Dissociation was performed in analysis buffer over 10 minutes. Regeneration steps between sample concentrations were performed in 3M MgCl₂, three times for 0.5 minutes. A flow rate of 25 μl/min was maintained throughout the process. Kinetics data were fit using a global fit on the analysis software provided by Biacore with reference subtraction.
In test [3] the target is T2, human CD38 (full length, on cells) (human, UniProt P28907 1-300). The test can be described thus: cell-based or functional assay.
Test [4] has as its target T1, recombinant human CD38 his tagged …. The experiment in a line: Octet BLI affinity, rhCD38.
In test [5] the target is T2, human CD38 (full length, on cells). The experiment in a line: flow cytometry, binding to Daudi cells. On the technique in general: In flow cytometry, cells or beads pass a laser one at a time.
Test [6] shares this target. The test can be described thus: flow cytometry, binding to Daudi cells. This is another data set of the same source.
Test [7] has as its target T1, recombinant human CD38 his tagged …. The experiment in a line: SPR Biacore affinity, rhCD38-his. The source holds these as a separate data set.
Method: as §1
Test [8] shares this target. The experiment in a line: Octet BLI affinity, rhCD38. The source holds these as a separate data set.
In test [9] the target is T2, human CD38 (full length, on cells). The experiment in a line: cell-based or functional assay. The source holds these as a separate data set.

Changes are numbered by the printed parent chain. Read-outs that look alike come from different tables or passages of the source.

B1: aCD38-a-327 (IgG4) (antibody, V domains shown)
VH: QVQLQESGPGLVKPSQTLSLTCTVSGGSISSGGYYWSWIRQHPGKGLEWIGYIYYSGSTYYNPSLKSRVTISVDTSKNQFSLKLSSVTAADTAVYYCARAKSELVLPYYYYMDVWGKGTTVTVSS
VL: not shown
As to B1, the Kd in [1] was 2.99 nM.

B2: aCD38-b-329-m6 (antibody, IgG1, V domains shown)
VH: QLQLQESGPGLVKPSETLSLTCTVSGGSISSSDYYWGWIRQPPGKGLEWIGSIYYSGSTYYNPSLKSRVTISVDTSKNQFSLKLSSVTAADTAVYYCARGQYSSGWYAYPFDMWGQGTMVTVSS
VL: EIVLTQSPGTLSLSPGERATLSCRASQSVRSSYLAWYQQKPGQAPRLLIYGASSRATGIPDRFSGSGSGTDFTLTISRLEPEDFAVYYCQQDEAVFTFGGGTKVEIK
Regarding B2, the Kd in [2] came out at 4.7 nM. Besides, in test [3], the “ADCC target lysis EC50” value came out at 0.0024 µg/mL and the “ADCC target lysis, max. % lysis” value stood at 47%. Also, the Kd in [4] was 19.9 nM. In test [5], the half-maximal effective concentration (EC50) was 0.651 µg/mL and the “Max MFI” value is 2300 MFI.

B3: aCD38-b-348 (IgG4) (antibody, V domains shown)
VH: B2 VH
VL: B2 VL with E93G, A94N, F96Y
In the case of B3, in test [1], the Kd amounted to 9.24 nM.

B4: aCD38-b-348-m3 (antibody, IgG1, V domains shown)
VH: B2 VH
VL: B2 VL with E93A, A94N, F96Y
As to B4, in test [6], the EC50 is 0.558 µg/mL and the “Max MFI” value came out at 2100 MFI. The Kd in test [7] was 28 nM. Also, the Kd in test [8] worked out at 55.1 nM. In test [9], the “ADCC target lysis EC50” value came to 0.0043 µg/mL and the “ADCC target lysis, max. % lysis” value is 39%.

B5: aCD38-b-348-m4 (antibody, IgG1, V domains shown)
VH: B2 VH
VL: B2 VL with D92E, E93G, A94N, F96Y
Regarding B5, in test [6], the EC50 is 0.299 µg/mL and the “Max MFI” value was determined as 2020 MFI. The dissociation constant (Kd) in [7] came out at 27 nM. For the same molecule, the Kd in test [8] is 70.1 nM. Also, in [9], the “ADCC target lysis EC50” value worked out at 0.0014 µg/mL and the “ADCC target lysis, max. % lysis” value stood at 38%.

B6: aCD38-b-348-m1 (antibody, IgG1, V domains shown)
VH: B2 VH
VL: B2 VL with D92E, E93A, A94N, F96Y
notes: also called aCD38-b-348-ml
For the molecule B6, in test [6], the EC50 turned out to be 0.485 µg/mL and the “Max MFI” value worked out at 1610 MFI. The Kd in test [7] was 63 nM. For the same molecule, the equilibrium dissociation constant (Kd) in test [8] worked out at 24.7 nM. In test [9], the “ADCC target lysis EC50” value was 0.0028 µg/mL and the “ADCC target lysis, max. % lysis” value turned out to be 38%.

B7: aCD38-b-329-m7 (antibody, IgG1, V domains shown)
VH: B2 VH
VL: B2 VL with E93S
For the molecule B7, the Kd in test [2] worked out at 4.9 nM. In test [3], the “ADCC target lysis EC50” value worked out at 0.0035 µg/mL and the “ADCC target lysis, max. % lysis” value was found to be 43%. In test [4], the Kd was 26 nM. In test [5], the EC50 was determined as 0.745 µg/mL and the “Max MFI” value came out at 2210 MFI.

B8: aCD38-b-348-m2 (antibody, IgG1, V domains shown)
VH: B2 VH
VL: B2 VL with E93S, A94N, F96Y
For the molecule B8, in test [6], the concentration for a half-maximal effect (EC50) turned out to be 0.499 µg/mL and the “Max MFI” value was found to be 2220 MFI. Also, the Kd in [7] amounted to 6.8 nM. In test [8], the Kd came to 39.9 nM. In test [9], the “ADCC target lysis EC50” value amounted to 0.0025 µg/mL and the “ADCC target lysis, max. % lysis” value stood at 44%.
